molecular target: Fes (UniProt P07332); test: phosphorylation enrichment, bacterial display (enrichment ratio); higher = better substrate or ligand; peptides without Tyr show the background
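Also: 11-residue human phosphosite peptides and single-mutation variants displayed on the E. coli surface, counted by deep sequencing, each peptide's frequency after selection divided by its frequency in the unselected input library; frequency after pTyr selection over input frequency; kinase dosed for 20-30% of maximal phosphorylation in three min.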

Fes, sequence (P07332 whole entry, looked up): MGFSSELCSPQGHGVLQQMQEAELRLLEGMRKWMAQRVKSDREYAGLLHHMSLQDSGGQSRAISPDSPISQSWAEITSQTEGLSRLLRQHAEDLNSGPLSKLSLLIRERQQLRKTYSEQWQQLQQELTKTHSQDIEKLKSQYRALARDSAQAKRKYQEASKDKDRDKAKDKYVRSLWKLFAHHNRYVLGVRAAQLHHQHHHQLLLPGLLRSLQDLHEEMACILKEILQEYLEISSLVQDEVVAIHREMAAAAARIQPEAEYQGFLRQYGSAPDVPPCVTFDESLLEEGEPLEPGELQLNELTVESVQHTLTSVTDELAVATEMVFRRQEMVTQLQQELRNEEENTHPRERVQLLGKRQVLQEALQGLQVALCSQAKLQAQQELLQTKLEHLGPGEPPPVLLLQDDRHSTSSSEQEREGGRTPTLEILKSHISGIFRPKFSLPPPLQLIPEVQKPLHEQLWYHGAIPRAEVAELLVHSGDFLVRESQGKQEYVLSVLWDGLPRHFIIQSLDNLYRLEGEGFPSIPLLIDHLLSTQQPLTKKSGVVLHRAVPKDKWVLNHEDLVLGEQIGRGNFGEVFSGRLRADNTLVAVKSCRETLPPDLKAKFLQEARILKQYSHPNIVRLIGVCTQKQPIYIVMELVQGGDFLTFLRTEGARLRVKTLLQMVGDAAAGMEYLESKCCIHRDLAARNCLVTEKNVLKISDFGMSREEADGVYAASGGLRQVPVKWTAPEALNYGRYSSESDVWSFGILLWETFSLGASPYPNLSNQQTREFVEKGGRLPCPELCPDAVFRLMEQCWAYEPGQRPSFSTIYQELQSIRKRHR

First: QITQVYGFYHE [PPP2CA_Y127_D131H]
Second: LPKVSCVKAID [GLRA1_Y307_Y307C]
The phosphorylation enrichment of the first is lower: 1.07 for the first, 1.38 for the second.

Compared with SNKLTYGTVVF [ACOX1_Y275_M278V], EALDFYGELRT [PTEN_Y155_V158L] is higher in phosphorylation enrichment: 0.845 for the first, 1.48 for the second.

Compared with WRGMPYGGRGD [TGM1_Y312_R307W], ALEKTYNTFRS [B4GALNT2_Y538_YF] is lower in phosphorylation enrichment: 0.514 for the first, 0.509 for the second.

Going from GFSRHCEDGFP [CTNND1_Y217_Y217C_YF] to DFDHSYFFIAT [ESD_Y262_G257D_YF], the phosphorylation enrichment rises from 0.958 to 1.36.

Going from FLAVGYHKPRI [IDS_Y225_H229R] to YGMSTYITRED [FNDC3B_Y180], the phosphorylation enrichment rises from 0.838 to 1.25.

Compared with RGVAHYILQTF [SLC39A4_Y359_T357A], MNKNAYHNVTT [ST3GAL6_Y306_A311T] is lower in phosphorylation enrichment: 1.34 for the first, 0.426 for the second.

First: TNLVPYTRIHF [TUBA1A_Y262_P263T]
Second: FTNELYMMMRD [FGFR1_Y730_C725Y_YF]
The phosphorylation enrichment of the first is lower: 0.829 for the first, 1.24 for the second.

Compared with QGIIIYKAAYF [SLC25A4_Y187_R188K], GTFEDYVEGLR [MYL6_Y89_YF] is lower in phosphorylation enrichment: 2.36 for the first, 1.11 for the second.

First: FRQLPYCPSVE [CTNND2_Y508_Q507P_YF]
Second: HLVLNYGVCFC [JAK2_Y613_V617F]
The phosphorylation enrichment of the first is lower: 1.39 for the first, 2.32 for the second.

Compared with IEELTYVIKQD [STX5_Y137_I138V], IEDNEYTAREG [HCK_Y411] is higher in phosphorylation enrichment: 1.26 for the first, 1.33 for the second.

First: EYRFIYMAVQH [PTPN11_Y515_Q510E]
Second: SDTGQYQCLVF [AXL_Y115]
The phosphorylation enrichment of the first is higher: 1.34 for the first, 1.26 for the second.

First: ALVLQYLRVPL [F9_Y371]
Second: RSGIFYKPESL [L2HGDH_Y103_H98R_YF]
The phosphorylation enrichment of the first is higher: 1.02 for the first, 0.866 for the second.

Compared with EEALHYLTRVE [SET_Y119], DKATEYSQFMR [MAX_Y70_I71S_YF] is lower in phosphorylation enrichment: 1.13 for the first, 0.683 for the second.

First: SHNKFYMLVAH [MFSD8_Y134_R139H_YF]
Second: LSDGPYSSPYE [EPOR_Y485_N487S]
The phosphorylation enrichment of the first is lower: 1.35 for the first, 1.39 for the second.

Compared with RDLRTYIMPAH [PNMT_Y256], KINKMYSDHAM is lower in phosphorylation enrichment: 0.866 for the first, 0.463 for the second.

Going from VCHELYNTIRD [PBRM1_Y54] to TLSGTYQFIIA [FOXL2_Y81_I80T_YF], the phosphorylation enrichment rises from 0.975 to 1.05.

ETLLYYGYRRS [POR_Y564_C566Y] gave a phosphorylation enrichment of 0.806.

molecular target: Fyn (UniProt P06241); test: as above
Sequence (P06241 whole entry, looked up): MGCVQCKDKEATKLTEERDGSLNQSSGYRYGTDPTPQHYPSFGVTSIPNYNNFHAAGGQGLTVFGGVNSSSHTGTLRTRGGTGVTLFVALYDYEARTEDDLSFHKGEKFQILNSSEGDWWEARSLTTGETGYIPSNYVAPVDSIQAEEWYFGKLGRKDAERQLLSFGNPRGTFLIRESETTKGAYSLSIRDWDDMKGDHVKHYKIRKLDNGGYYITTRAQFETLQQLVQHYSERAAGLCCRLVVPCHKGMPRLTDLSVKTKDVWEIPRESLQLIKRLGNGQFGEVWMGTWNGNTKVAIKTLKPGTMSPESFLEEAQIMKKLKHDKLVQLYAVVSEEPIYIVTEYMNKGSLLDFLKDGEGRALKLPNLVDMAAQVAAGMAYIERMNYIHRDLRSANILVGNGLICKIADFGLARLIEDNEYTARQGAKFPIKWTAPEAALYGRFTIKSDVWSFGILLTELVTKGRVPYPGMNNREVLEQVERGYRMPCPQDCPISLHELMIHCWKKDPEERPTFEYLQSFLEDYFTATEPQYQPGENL

First: QITQVYGFYHE [PPP2CA_Y127_D131H]
Second: LPKVSCVKAID [GLRA1_Y307_Y307C]
The phosphorylation enrichment of the first is higher: 10.1 for the first, 0.655 for the second.

Going from SNKLTYGTVVF [ACOX1_Y275_M278V] to EALDFYGELRT [PTEN_Y155_V158L], the phosphorylation enrichment falls from 8 to 0.933.

First: WRGMPYGGRGD [TGM1_Y312_R307W]
Second: ALEKTYNTFRS [B4GALNT2_Y538_YF]
The phosphorylation enrichment of the first is lower: 0.467 for the first, 0.777 for the second.

First: GFSRHCEDGFP [CTNND1_Y217_Y217C_YF]
Second: DFDHSYFFIAT [ESD_Y262_G257D_YF]
The phosphorylation enrichment of the first is lower: 0.437 for the first, 0.55 for the second.

First: FLAVGYHKPRI [IDS_Y225_H229R]
Second: YGMSTYITRED [FNDC3B_Y180]
The phosphorylation enrichment of the first is lower: 0.426 for the first, 0.852 for the second.

First: RGVAHYILQTF [SLC39A4_Y359_T357A]
Second: MNKNAYHNVTT [ST3GAL6_Y306_A311T]
The phosphorylation enrichment of the first is higher: 0.636 for the first, 0.34 for the second.

Going from TNLVPYTRIHF [TUBA1A_Y262_P263T] to FTNELYMMMRD [FGFR1_Y730_C725Y_YF], the phosphorylation enrichment rises from 0.45 to 1.1.

Going from QGIIIYKAAYF [SLC25A4_Y187_R188K] to GTFEDYVEGLR [MYL6_Y89_YF], the phosphorylation enrichment falls from 0.53 to 0.427.

First: FRQLPYCPSVE [CTNND2_Y508_Q507P_YF]
Second: HLVLNYGVCFC [JAK2_Y613_V617F]
The phosphorylation enrichment of the first is lower: 0.538 for the first, 1.11 for the second.

Compared with IEELTYVIKQD [STX5_Y137_I138V], IEDNEYTAREG [HCK_Y411] is higher in phosphorylation enrichment: 0.494 for the first, 0.576 for the second.

Going from EYRFIYMAVQH [PTPN11_Y515_Q510E] to SDTGQYQCLVF [AXL_Y115], the phosphorylation enrichment falls from 4.15 to 2.03.

First: ALVLQYLRVPL [F9_Y371]
Second: RSGIFYKPESL [L2HGDH_Y103_H98R_YF]
The phosphorylation enrichment of the first is lower: 0.455 for the first, 0.512 for the second.

Compared with EEALHYLTRVE [SET_Y119], DKATEYSQFMR [MAX_Y70_I71S_YF] is higher in phosphorylation enrichment: 0.466 for the first, 0.733 for the second.

First: SHNKFYMLVAH [MFSD8_Y134_R139H_YF]
Second: LSDGPYSSPYE [EPOR_Y485_N487S]
The phosphorylation enrichment of the first is lower: 0.554 for the first, 0.882 for the second.

Going from RDLRTYIMPAH [PNMT_Y256] to KINKMYSDHAM, the phosphorylation enrichment falls from 0.577 to 0.349.

Compared with VCHELYNTIRD [PBRM1_Y54], TLSGTYQFIIA [FOXL2_Y81_I80T_YF] is higher in phosphorylation enrichment: 0.718 for the first, 0.814 for the second.

Sequence ETLLYYGYRRS [POR_Y564_C566Y] has a phosphorylation enrichment of 9.27.

molecular target: MERTK (UniProt Q12866); test: as above
Sequence (Q12866 whole entry, looked up): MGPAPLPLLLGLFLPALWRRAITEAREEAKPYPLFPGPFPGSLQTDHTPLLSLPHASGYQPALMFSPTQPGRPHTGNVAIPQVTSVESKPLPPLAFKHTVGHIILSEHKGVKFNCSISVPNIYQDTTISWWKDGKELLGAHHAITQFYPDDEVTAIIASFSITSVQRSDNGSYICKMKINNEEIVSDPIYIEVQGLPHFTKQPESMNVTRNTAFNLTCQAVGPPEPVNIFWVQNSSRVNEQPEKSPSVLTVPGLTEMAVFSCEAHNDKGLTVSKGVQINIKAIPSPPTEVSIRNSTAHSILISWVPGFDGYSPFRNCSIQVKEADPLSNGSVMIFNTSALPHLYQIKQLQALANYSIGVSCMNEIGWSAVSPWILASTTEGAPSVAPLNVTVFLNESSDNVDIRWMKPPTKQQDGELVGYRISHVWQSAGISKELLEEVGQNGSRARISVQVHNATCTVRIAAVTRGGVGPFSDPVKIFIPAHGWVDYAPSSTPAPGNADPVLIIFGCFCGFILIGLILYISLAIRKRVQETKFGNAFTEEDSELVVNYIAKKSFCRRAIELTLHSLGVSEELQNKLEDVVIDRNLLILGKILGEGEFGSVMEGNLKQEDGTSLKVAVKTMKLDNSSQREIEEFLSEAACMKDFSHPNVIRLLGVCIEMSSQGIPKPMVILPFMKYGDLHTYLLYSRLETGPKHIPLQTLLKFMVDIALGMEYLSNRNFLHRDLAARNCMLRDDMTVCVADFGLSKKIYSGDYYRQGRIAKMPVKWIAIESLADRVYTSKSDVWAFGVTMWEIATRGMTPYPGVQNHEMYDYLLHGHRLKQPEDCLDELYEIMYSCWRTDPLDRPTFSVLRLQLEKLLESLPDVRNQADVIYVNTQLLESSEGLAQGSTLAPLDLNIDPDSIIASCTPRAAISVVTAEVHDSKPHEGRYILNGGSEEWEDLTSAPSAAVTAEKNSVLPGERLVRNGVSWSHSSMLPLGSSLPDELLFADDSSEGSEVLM

First: QITQVYGFYHE [PPP2CA_Y127_D131H]
Second: LPKVSCVKAID [GLRA1_Y307_Y307C]
The phosphorylation enrichment of the first is higher: 3.47 for the first, 0.501 for the second.

Compared with SNKLTYGTVVF [ACOX1_Y275_M278V], EALDFYGELRT [PTEN_Y155_V158L] is higher in phosphorylation enrichment: 0.416 for the first, 0.453 for the second.

Compared with WRGMPYGGRGD [TGM1_Y312_R307W], ALEKTYNTFRS [B4GALNT2_Y538_YF] is higher in phosphorylation enrichment: 0.363 for the first, 0.382 for the second.

Going from GFSRHCEDGFP [CTNND1_Y217_Y217C_YF] to DFDHSYFFIAT [ESD_Y262_G257D_YF], the phosphorylation enrichment rises from 0.402 to 0.867.

Compared with FLAVGYHKPRI [IDS_Y225_H229R], YGMSTYITRED [FNDC3B_Y180] is higher in phosphorylation enrichment: 0.272 for the first, 0.46 for the second.

Going from RGVAHYILQTF [SLC39A4_Y359_T357A] to MNKNAYHNVTT [ST3GAL6_Y306_A311T], the phosphorylation enrichment falls from 0.583 to 0.412.

Compared with TNLVPYTRIHF [TUBA1A_Y262_P263T], FTNELYMMMRD [FGFR1_Y730_C725Y_YF] is higher in phosphorylation enrichment: 0.374 for the first, 3.53 for the second.

Compared with QGIIIYKAAYF [SLC25A4_Y187_R188K], GTFEDYVEGLR [MYL6_Y89_YF] is lower in phosphorylation enrichment: 1.04 for the first, 0.461 for the second.

Compared with FRQLPYCPSVE [CTNND2_Y508_Q507P_YF], HLVLNYGVCFC [JAK2_Y613_V617F] is higher in phosphorylation enrichment: 0.486 for the first, 0.575 for the second.

First: IEELTYVIKQD [STX5_Y137_I138V]
Second: IEDNEYTAREG [HCK_Y411]
The phosphorylation enrichment of the first is lower: 0.363 for the first, 0.519 for the second.

First: EYRFIYMAVQH [PTPN11_Y515_Q510E]
Second: SDTGQYQCLVF [AXL_Y115]
The phosphorylation enrichment of the first is lower: 1.29 for the first, 1.77 for the second.

Compared with ALVLQYLRVPL [F9_Y371], RSGIFYKPESL [L2HGDH_Y103_H98R_YF] is higher in phosphorylation enrichment: 0.378 for the first, 0.499 for the second.

Compared with EEALHYLTRVE [SET_Y119], DKATEYSQFMR [MAX_Y70_I71S_YF] is lower in phosphorylation enrichment: 0.469 for the first, 0.423 for the second.

Going from SHNKFYMLVAH [MFSD8_Y134_R139H_YF] to LSDGPYSSPYE [EPOR_Y485_N487S], the phosphorylation enrichment falls from 0.583 to 0.523.

Going from RDLRTYIMPAH [PNMT_Y256] to KINKMYSDHAM, the phosphorylation enrichment falls from 0.572 to 0.432.

First: VCHELYNTIRD [PBRM1_Y54]
Second: TLSGTYQFIIA [FOXL2_Y81_I80T_YF]
The phosphorylation enrichment of the first is lower: 0.448 for the first, 2.89 for the second.

In the case of ETLLYYGYRRS [POR_Y564_C566Y], the phosphorylation enrichment is reported as 6.93.

molecular target: Jak2 (UniProt O60674); test: as above
Sequence (O60674 whole entry, looked up): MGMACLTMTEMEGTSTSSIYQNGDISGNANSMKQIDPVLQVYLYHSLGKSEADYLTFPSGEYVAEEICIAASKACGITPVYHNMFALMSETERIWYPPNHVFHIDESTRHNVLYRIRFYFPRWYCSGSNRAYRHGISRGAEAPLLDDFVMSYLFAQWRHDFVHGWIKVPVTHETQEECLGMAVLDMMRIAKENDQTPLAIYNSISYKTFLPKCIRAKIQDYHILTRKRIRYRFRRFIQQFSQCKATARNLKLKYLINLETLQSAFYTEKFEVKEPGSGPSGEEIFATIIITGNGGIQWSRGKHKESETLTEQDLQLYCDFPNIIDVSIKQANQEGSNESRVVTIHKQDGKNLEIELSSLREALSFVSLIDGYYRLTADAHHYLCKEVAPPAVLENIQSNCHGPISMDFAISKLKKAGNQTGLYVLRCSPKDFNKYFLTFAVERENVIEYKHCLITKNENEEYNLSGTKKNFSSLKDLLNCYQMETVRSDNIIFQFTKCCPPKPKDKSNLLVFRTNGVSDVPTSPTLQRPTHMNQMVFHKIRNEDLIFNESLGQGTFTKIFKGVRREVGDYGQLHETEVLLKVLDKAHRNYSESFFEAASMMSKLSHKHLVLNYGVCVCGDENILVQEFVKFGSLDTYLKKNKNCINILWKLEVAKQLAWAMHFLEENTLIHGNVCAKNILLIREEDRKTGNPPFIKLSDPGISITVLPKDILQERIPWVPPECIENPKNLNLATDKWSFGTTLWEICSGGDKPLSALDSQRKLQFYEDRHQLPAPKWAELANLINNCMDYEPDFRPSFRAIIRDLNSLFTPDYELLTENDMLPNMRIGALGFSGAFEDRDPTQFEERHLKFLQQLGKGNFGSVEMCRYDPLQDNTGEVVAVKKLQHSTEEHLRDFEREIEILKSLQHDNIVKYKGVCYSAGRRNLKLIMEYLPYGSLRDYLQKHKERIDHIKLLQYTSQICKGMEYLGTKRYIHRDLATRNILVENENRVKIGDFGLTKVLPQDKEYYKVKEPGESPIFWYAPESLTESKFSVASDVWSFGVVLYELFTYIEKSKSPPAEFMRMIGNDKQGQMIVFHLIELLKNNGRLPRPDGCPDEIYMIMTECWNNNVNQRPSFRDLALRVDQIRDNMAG

Going from QITQVYGFYHE [PPP2CA_Y127_D131H] to LPKVSCVKAID [GLRA1_Y307_Y307C], the phosphorylation enrichment falls from 1.21 to 0.945.

Going from SNKLTYGTVVF [ACOX1_Y275_M278V] to EALDFYGELRT [PTEN_Y155_V158L], the phosphorylation enrichment rises from 0.685 to 1.33.

Compared with WRGMPYGGRGD [TGM1_Y312_R307W], ALEKTYNTFRS [B4GALNT2_Y538_YF] is higher in phosphorylation enrichment: 0.482 for the first, 0.73 for the second.

Going from GFSRHCEDGFP [CTNND1_Y217_Y217C_YF] to DFDHSYFFIAT [ESD_Y262_G257D_YF], the phosphorylation enrichment rises from 0.724 to 7.99.

First: FLAVGYHKPRI [IDS_Y225_H229R]
Second: YGMSTYITRED [FNDC3B_Y180]
The phosphorylation enrichment of the first is lower: 0.502 for the first, 1.07 for the second.

First: RGVAHYILQTF [SLC39A4_Y359_T357A]
Second: MNKNAYHNVTT [ST3GAL6_Y306_A311T]
The phosphorylation enrichment of the first is higher: 1.33 for the first, 0.434 for the second.

Going from TNLVPYTRIHF [TUBA1A_Y262_P263T] to FTNELYMMMRD [FGFR1_Y730_C725Y_YF], the phosphorylation enrichment rises from 0.682 to 0.938.

Going from QGIIIYKAAYF [SLC25A4_Y187_R188K] to GTFEDYVEGLR [MYL6_Y89_YF], the phosphorylation enrichment falls from 2.63 to 0.971.

Going from FRQLPYCPSVE [CTNND2_Y508_Q507P_YF] to HLVLNYGVCFC [JAK2_Y613_V617F], the phosphorylation enrichment rises from 1.08 to 1.53.

Compared with IEELTYVIKQD [STX5_Y137_I138V], IEDNEYTAREG [HCK_Y411] is higher in phosphorylation enrichment: 1.18 for the first, 1.33 for the second.

First: EYRFIYMAVQH [PTPN11_Y515_Q510E]
Second: SDTGQYQCLVF [AXL_Y115]
The phosphorylation enrichment of the first is higher: 1.26 for the first, 0.969 for the second.

Compared with ALVLQYLRVPL [F9_Y371], RSGIFYKPESL [L2HGDH_Y103_H98R_YF] is lower in phosphorylation enrichment: 1.6 for the first, 0.647 for the second.

Going from EEALHYLTRVE [SET_Y119] to DKATEYSQFMR [MAX_Y70_I71S_YF], the phosphorylation enrichment falls from 1 to 0.524.

Compared with SHNKFYMLVAH [MFSD8_Y134_R139H_YF], LSDGPYSSPYE [EPOR_Y485_N487S] is higher in phosphorylation enrichment: 1.18 for the first, 1.2 for the second.

First: RDLRTYIMPAH [PNMT_Y256]
Second: KINKMYSDHAM
The phosphorylation enrichment of the first is higher: 0.893 for the first, 0.5 for the second.

Going from VCHELYNTIRD [PBRM1_Y54] to TLSGTYQFIIA [FOXL2_Y81_I80T_YF], the phosphorylation enrichment falls from 0.761 to 0.732.

ETLLYYGYRRS [POR_Y564_C566Y] gave a phosphorylation enrichment of 5.24.
